# Results as given in the Immune Epitope Database (IEDB).
# pKd: −log10 of the molar value.
# Columns and labels:
# Experiment in all cases: IEDB peptide-MHC binding, purified MHC/competitive/radioactivity; filed as Kd, often an IC50 or EC50 that approximates it; ≥ and ≤ were set here for values at or beyond the usual limits of such assays
# HLA-A*68:01 = target: HLA-A*68:01
# HLA-A*11:01 = target: HLA-A*11:01
# HLA-A*33:01 = target: HLA-A*33:01
# HLA-A*31:01 = target: HLA-A*31:01
# HLA-A*03:01 = target: HLA-A*03:01
# [1] = source organism: Vaccinia virus WR
# [2] = source organism: SARS coronavirus Tor2
# [3] = source organism: Lassa virus Josiah
# [4] = source organism: Dengue virus 4 Philippines/H241/1956
# [5] = source organism: Dengue virus 2 Jamaica/1409/1983
# [6] = source organism: Dengue virus 3 Sri Lanka/1266/2000
# [7] = source organism: Dengue virus 3 Martinique/1243/1999
# [8] = source organism: Mammarenavirus juninense
Sequence,pKd (HLA-A*68:01; [1]),pKd (HLA-A*11:01; [1]),pKd (HLA-A*33:01; [1]),pKd (HLA-A*31:01; [1]),pKd (HLA-A*03:01; [1]),also measured
AAISKLGINY,6.55,6.45,5.92,5.85,6.49,–
AFDAPTLYVK,6.87,6.57,≤ 4.25,5.42,5.64,–
AIMQVFFGY,–,–,–,–,–,pKd (HLA-A*68:01; [2]): 6.72; pKd (HLA-A*11:01; [2]): 8.86; pKd (HLA-A*33:01; [2]): 5.85; pKd (HLA-A*31:01; [2]): 6.34; pKd (HLA-A*03:01; [2]): 9.16
AITDNGPMPY,≤ 4.63,6.47,≤ 4.30,≤ 4.22,6.60,–
ALMSIISTFH,–,–,–,–,–,pKd (HLA-A*33:01; [3]): 5.44; pKd (HLA-A*03:01; [3]): 6.21
ASGQRCHFIK,5.29,7.90,≤ 4.20,5.83,6.03,–
ASNAPSAAK,–,–,–,–,–,pKd (HLA-A*11:01; source organism: Homo sapiens): 7.85
ATFIDVHIPK,8.46,9.57,7.36,6.04,8.04,–
AVMDIISRK,–,–,–,–,–,pKd (HLA-A*11:01; [4]): 6.97; pKd (HLA-A*03:01; [4]): 8.31
CVTQVLMMR,–,–,–,–,–,pKd (HLA-A*68:01; [5]): 7.00; pKd (HLA-A*33:01; [5]): 6.46
DIISRRDQR,–,–,–,–,–,pKd (HLA-A*68:01; [5]): 7.44; pKd (HLA-A*33:01; [5]): 6.98
DMMLMIGNY,6.11,4.90,5.42,4.96,≤ 4.32,–
DMSHLKVALY,6.07,5.40,4.83,6.11,5.74,–
DTDIFSPENK,7.37,5.77,4.77,≤ 4.65,5.23,–
DYMPSMKRFR,–,–,–,–,–,pKd (HLA-A*33:01; [5]): 8.71; pKd (HLA-A*31:01; [5]): 7.36
EIINFTISMR,8.95,5.69,8.11,6.37,5.79,–
EINKNPKYK,–,–,–,–,–,pKd (HLA-A*03:01; source organism: Homo sapiens): 6.12
ETTHHAVSR,–,–,–,–,–,pKd (HLA-A*68:01; [6]): 7.72; pKd (HLA-A*33:01; [6]): 8.33
ETVKMGAFMY,7.21,5.80,≤ 4.15,≤ 4.50,≤ 4.15,–
EVMRGKFGK,–,–,–,–,–,pKd (HLA-A*68:01; [7]): 7.25; pKd (HLA-A*11:01; [7]): 6.07
FFLIVLLIPE,–,–,–,–,–,pKd (HLA-A*33:01; [5]): 6.49

Sequence,pKd (HLA-A*68:01; [1]),pKd (HLA-A*11:01; [1]),pKd (HLA-A*33:01; [1]),pKd (HLA-A*31:01; [1]),pKd (HLA-A*03:01; [1]),also measured
FIFSALDEK,7.61,7.19,≤ 4.18,≤ 4.31,6.81,–
FIRRKYLIY,≤ 4.27,≤ 4.57,≤ 4.28,≤ 4.11,5.82,–
GIALGLMALK,–,–,–,–,–,pKd (HLA-A*03:01; [7]): 6.66
GKQYIHCFRK,–,–,–,–,–,pKd (HLA-A*68:01; [8]): 5.76; pKd (HLA-A*11:01; [8]): 5.82; pKd (HLA-A*33:01; [8]): ≤ 4.53; pKd (HLA-A*31:01; [8]): 5.44; pKd (HLA-A*03:01; [8]): 5.66
GSCVYNMMGK,–,–,–,–,–,pKd (HLA-A*11:01; [7]): 7.59; pKd (HLA-A*03:01; [7]): 6.98
GSQLAKRFSK,–,–,–,–,–,pKd (HLA-A*11:01; source organism: Dengue virus 1 Brazil/97-11/1997): 6.97
GTSWFITQR,–,–,–,–,–,pKd (HLA-A*68:01; [2]): 7.89; pKd (HLA-A*11:01; [2]): 8.19; pKd (HLA-A*33:01; [2]): 5.91; pKd (HLA-A*31:01; [2]): 8.08; pKd (HLA-A*03:01; [2]): 6.50
HMFAGHLKCK,–,–,–,–,–,pKd (HLA-A*03:01; [4]): 8.13
HQNSKKTTK,–,–,–,–,–,pKd (HLA-A*68:01; [2]): ≤ 4.11; pKd (HLA-A*11:01; [2]): 5.68; pKd (HLA-A*33:01; [2]): ≤ 4.11; pKd (HLA-A*31:01; [2]): 5.70; pKd (HLA-A*03:01; [2]): 5.96
HTTAFFNTCK,8.67,8.84,4.85,6.95,6.74,–
IAHINTLIQY,5.82,6.01,5.16,5.06,6.42,–
IFSPENKAFK,6.74,6.12,5.61,6.16,7.02,–
IINNAVYTK,–,–,–,–,–,pKd (HLA-A*68:01; [2]): 6.32; pKd (HLA-A*11:01; [2]): 7.77; pKd (HLA-A*33:01; [2]): 4.71; pKd (HLA-A*31:01; [2]): 6.94; pKd (HLA-A*03:01; [2]): 7.43
ILARNEEGR,7.06,≤ 4.11,5.98,5.34,4.78,–
IMEIVSHLR,8.49,6.66,7.27,7.92,5.71,–
IMSIGFEAR,6.66,5.50,6.44,7.52,5.31,–
IMSMMNITR,7.52,7.21,8.39,6.29,6.06,–
ISDNKKEYK,5.47,6.44,4.98,5.74,5.70,–
KFISDNKKEY,≤ 4.39,≤ 4.16,≤ 4.15,6.37,≤ 4.15,–
KIDKLTFQIY,5.83,4.76,4.89,5.47,5.90,–
KIMEIVSHLR,8.62,8.44,7.20,9.25,7.14,–
